What is called Km is the substrate concentration at which the rate is half of its maximum.

Holding throughout (type): biochemical
Data set [1] in a line: Km and kcat of recombinant purified enzyme for phenylalanine. The conditions noted are these: purified His-tag enzyme. Here is the method: (§1) [Measurement of Enzyme Activity of Escherichia coli Recombinant Purified Enzyme]
(§2) Escherichia coli was inoculated into 5 ml of LB medium containing 100 mg/L ampicillin sodium or 100 mg/L kanamycin sulfate, and cultured overnight at 37° C. It was then used to inoculate 200 ml of the same culture medium and cultured to an O.D of 0.6, IPTG was added to a final concentration of 0.5 mM, and the incubation was continued for 12 hours at 28° C. The rotational speed during cultures was 120 rpm. The cultured cells were collected and suspended in 20 mM potassium phosphate buffer (pH 7.5) and subjected to ultrasonic disruption, and after centrifugal separation, the supernatant was purified using a His-Trap column and the enzyme activity was measured. The method of measuring the enzyme activity was according to the method for the crude extract described above.
(§3) Since pET28AtPAL4 and its mutants and RgPAL were produced as fusion proteins with His-tag in the Escherichia coli of Example 3, these enzymes could be easily purified using an affinity column. After culturing the producing cells, the cells were collected, disrupted and purified. The purified enzymes were used to calculate the Km values and kcat values.

A short description of data set [2]: Km and kcat of recombinant purified enzyme for 4-aminophenylalanine. The conditions noted are these: purified His-tag enzyme. On the procedure: as §1, §2, §3
Data set [3] can be described thus: 4APAL activity of Escherichia coli recombinant enzyme crude extract. The conditions noted are these: crude extract, NST37(DE) host, 20 mM 4-aminophenylalanine. On the procedure:
(§4) [Measurement of Enzyme Activity of Escherichia coli Recombinant Enzyme Crude Extract]
(§5) Escherichia coli was inoculated into 5 ml of LB medium containing 100 mg/L ampicillin sodium or 100 mg/L kanamycin sulfate, and cultured overnight at 37° C. It was then inoculated into 200 ml of the same culture medium and cultured to an O.D. of 0.6, isopropyl-β-thiogalactopyranoside (IPTG) was added to a final concentration of 0.5 mM, and culturing was conducted for 12 hours at 28° C.
(§6) The cultured cells were collected and suspended in 20 mM potassium phosphate buffer (pH 7.5) and subjected to ultrasonic disruption and the supernatant was used as a crude extract for activity measurement. The enzyme activity was measured and quantified by measuring the absorbance at the absorption wavelength of the reaction product using a spectrophotometer, for a period of 5 minutes. For PAL activity, the crude extract was added to 100 mM Tris Buffer (pH 8.0) and 20 mM phenylalanine, reaction was conducted, and production of cinnamic acid was measured by the change in absorbance at a wavelength of 290 nm, while for 4APAL activity, 20 mM 4-aminophenylalanine was used as substrate and the absorbance at a wavelength of 315 nm due to 4-aminocinnamic acid was measured and quantified.

Data set [4] can be described thus: PAL activity of Escherichia coli recombinant enzyme crude extract. The conditions noted are these: crude extract, NST37(DE) host, 20 mM phenylalanine. Here is the method:
as §4, §5, §6

“AtPAL4: PAL derived from the plant Arabidopsis thaliana, amino acid sequence SEQ ID NO: 4”: in data set [1], the “Kcat value, Phenylalanine” value stood at 5.1 s⁻¹. In data set [2], the “Kcat value, 4-Aminophenylalanine” value is over 0.40 s⁻¹ and the Michaelis constant (Km) is over 40 mM. In addition, the 4APAL activity in data set [3] was found to be 0.012 µmol/min/mg. Further, in data set [4], the PAL activity is 0.18 µmol/min/mg.

These data come from patent publication US10053716B2, “4-amino cinnamic acid production method using enzyme” (JAPAN SCIENCE AND TECHNOLOGY AGENCY, priority 2014, dated 2018).
